Assay results published in patent US20070072186A1, “Methods and agents for screening for compounds capable of modulating her2 expression” (priority 2003, published 2007).

Tests used:
Ship-2 uORF = assay: chimeric luciferase constructs with Ship-2 5′ UTR in SKBR3 cells; type: cell-based; settings: in combination with a Ship-2 5′ UTR, FIG. 7
From the text: Ship-2 mRNA contains a 33 nucleotide uORF (encoding 10 amino acids) that is located 14 nucleotides upstream of the main ORF. The uORF strongly represses translation of the main ORF.
The presence of TRE1 in the 3′ UTR, when in combination with a Ship-2 5′ UTR, increases expression of luciferase about 5-fold relative to luciferase being flanked by 3′ and 5′ Ship-2 UTRs. Luciferase expression increases when flanked by a 5′ Ship-2 UTR and a chimeric 3′ UTR, consisting of 328 residues of Ship-2 3′ UTR flanked by the 5′ and 3′ end seqeunces of the Her-23′ UTR, relative to luciferase being flanked by 3′ and 5′ Ship-2 UTRs. […] The presence of the 3′ Her2 UTR residues 1-110 (SEQ ID NO: 28) in the chimeric 3′ UTR results in a slight increase in luciferase expression relative to 3′ Ship-2 UTR. Suppression of translational repression occurs in cells with chimeric constructs expressing a Ship-2 3′ UTR containing only TRE1 (SEQ ID NO: 1) from a Her-23′ UTR.

[1] = system: capped-5′+3′ UTR-luciferase RNA; assay: in vitro rabbit reticulocyte translation of capped reporter RNA in the presence of competitor RNA; type: biochemical; settings: for inhibition of translation of capped-5′+3′ UTR-luciferase RNA relative to absence of competitor RNA: 5-fold molar excess of competitor RNA, 60 minutes at 37° C., FIG. 1
Experimental: A 73-residue region from a 3′ her2 UTR (SEQ ID NO: 1) and an N-terminal 310-residue region from a 3′ her2 UTR (SEQ ID NO: 5) are cloned into a construct downstream of a T7-promoter. RNA encoded for by these regions is synthesized using a T7-in vitro transcription kit (Ambion, Inc.; Austin, Tex.).
To quantitate the maximum level of translation, a capped-5′+3′ UTR-luciferase RNA (0.057 pmoles) is translated in an in vitro rabbit reticulocyte translation system for 60 minutes at 37° C. Then, a capped-5′+3′ UTR-luciferase RNA is translated in the presence of between a 5- to 500-fold molar excess of RNA from either the 73-residue region from a 3′ her2 UTR (SEQ ID NO: 1) or the N-terminal 310-residue region from a 3′ her2 UTR (SEQ ID NO: 5) under the same conditions.
Capped, in vitro-transcribed Her2 5′ UTR-luciferase-Her2 3′ UTR (5H3H-Luc) and vector only-luciferase (Vector-Luc) are translated in the presence or absence of competitor RNA fragments derived from a Her-2 3′ UTR. Nucleic acid molecules derived from nucleotides 468-540 of a Her2 3′ UTR (468-540) and from residues 468-615 of a Her2 3′ UTR (468-615) each contain the 73-nucleotide sequence (SEQ ID NO:1) essential for suppression of 5′ Her2 UTR repression. […] The percentage of inhibition of expression is less in the presence of the 1-310 fragment with respect to the percentage of inhibition of expression in the presence of either of the nucleic acid molecules containing SEQ ID NO: 1, 468-615 and 468-540. The percentage of inhibition for the 1-310 fragment is dose-dependent, whereas even at only a 5-fold molar excess of competitor RNA conatining SEQ ID NO: 1, expression is only at 25% of the maximum level of translation.

48-kDa polypeptide = assay: UV-crosslinking of 32P-labeled RNA with SKBR3 cytoplasmic extracts; type: binding; settings: for competition for binding of the 48-kDa polypeptide to full-length, labeled Her2 3′ UTR: FIG. 10B; for UV-crosslinking of the 48-kDa polypeptide to labeled RNA: SKBR3 cytoplasmic extracts, FIG. 10A
Experimental: Total protein from cancer cell lines is incubated with 10 fmoles of ^32P-UTP-labeled RNA for 1 hour at 37° C. in a final volume of 20 μl using Binding Buffer (20 mM Hepes-KOH, pH 7.5, 2.5 mM MgCl2, 100 mM KCl, 20% glycerol, 0.5 mM dithiothreitol, protease inhibitor tablets). Reaction mixtures are UV-irradiated at 254 nm for 10 minutes with a StrataLinker® 11800 (Stratagene; La Jolla, Calif.) in Costar® 96-Well Cell Culture Clusters (CORNING COSTAR Co., Cambridge, Mass.) on ice. The reaction mixtures are then treated with RNAse A (2 mg/ml) for 30 minutes at 37° C. The samples are analyzed by 12% or 10-14% Criterion™ gels (Bio-Rad Laboratories, Inc., Hercules, Calif.) by Sodium Dodecyl Sulfate-Polyacrylamide gel electrophoresis (SDS-PAGE) and are detected by autoradiography.
To study the role of trans-acting factors in modulating interactions between 5′ and 3′ UTRs, in vitro transcripts are synthesized, labeled, and incubated with cytoplasmic extracts from SKBR3 cells. After UV-crosslinking, unprotected areas of labeled RNA are digested with RNAse A, and the remaining labeled RNA molecules are resolved on SDS-PAGE.
Instead, a minimal binding region of […], corresponding to the nucleotide sequence from residue 490 to residue 510 of a 3′ Her2 UTR, is essential for the 48-kDa polypeptide to UV-crosslink to a Her2 3′ UTR. […] In comparison, competition with a 500-fold molar excess of nucleic acid molecules with sequences derived from the Her2 5′ UTR is ineffective in titrating out the 48-kDa polypepide.

[2] = system: luciferase reporter gene linked to a 5′ her2 UTR; assay: luciferase constructs with 3′ her2 UTR variants transfected into SKBR3 cells; type: cell-based; settings: 48 hours after transfection
Experimental: A luciferase reporter gene is linked to 3′ her2 UTR variants to make various constructs (see FIG. 6). Each construct is transfected into cell-lines, SKBR3 cells in particular, using Fugene® (Hoffmann-La Roche Inc., Nutley, N.J.), and the luciferase activity is measured 48 hours after transfection. The results are expressed as a fold-increase in luciferase activity over the repression caused by a 5′ her2 UTR (SEQ ID NO: 6) linked to the luciferase reporter gene (see FIG. 6). A 5′ her2 UTR represses translation of a reporter gene, such as luciferase.

[3] = system: luciferase reporter gene linked to a 5′ her2 UTR; assay: luciferase reporter constructs with her2 UTRs transfected into a panel of cell lines; type: cell-based; settings: luciferase activity 48 hours after transfection
Experimental: A luciferase reporter gene is linked to her2 UTRs to make various constructs (see FIG. 2). Each construct is transfected into a panel of cell-lines using Fugene® (Hoffmann-La Roche Inc., Nutley, N.J.), and the luciferase activity is measured 48 hours after transfection. The results are expressed as a fold-increase in luciferase activity over the repression caused by the 5′ her2 UTR linked to the luciferase reporter gene. A 5′ her2 UTR (SEQ ID NO: 6) represses translation of a luciferase reporter gene. […] The greatest modulation is observed in the mammalian cancer cell lines that over-express Her2 protein, SKBR-3 and BT-474, about 13-fold and about 10-fold, respectively, showing that the efficiency of translation of a luciferase reporter gene mRNA in Her2 positive cells is regulated by interactions of regions in the 5′ her2 UTR and the 3′ her2 UTR. Moreover, the effect is more pronounced in high Her2 expressing cells relative to low Her2 expressing cell lines, especially for breast cancer cells.

B1: SEQ ID NO: 1: 73-residue region (residues 468-540) from a 3′ her2 UTR, translational regulatory element TRE1; used as competitor RNA (nucleic acid)
DNA: CTTTTCTGTTTAGTTTTTACTTTTTTTGTTTTGTTTTTTTAAAGACGAAATAAAGACCCAGGGGAGAATGGGT
modifications: competitor RNA from UTR region, further chemistry not given here
- increase of luciferase expression relative to luciferase flanked by 3′ and 5′ Ship-2 UTRs (Ship-2 uORF): about 5 fold
- inhibition of translation of capped-5′+3′ UTR-luciferase RNA relative to absence of competitor RNA [1]: about 75%
- competition for binding of the 48-kDa polypeptide to full-length, labeled Her2 3′ UTR (48-kDa polypeptide; 50-fold molar excess of unlabeled competitor): prevents binding
- UV-crosslinking of the 48-kDa polypeptide to labeled RNA (48-kDa polypeptide): crosslinks

B2: SEQ ID NO: 5: first 310 nucleotides of the Her2 3′ UTR, does not contain SEQ ID NO: 1; competitor RNA (nucleic acid)
DNA: TGAACCAGAAGGCCAAGTCCGCAGAAGCCCTGATGTGTCCTCAGGGAGCAGGGAAGGCCTGACTTCTGCTGGCATCAAGAGGTGGGAGGGCCCTCCGACCACTTCCAGGGGAACCTGCCATGCCAGGAACCTGTCCTAAGGAACCTTCCTTCCTGCTTGAGTTCCCAGATGGCTGGAAGGGGTCCAGCCTCGTTGGAAGAGGAACAGCACTGGGGAGTCTTTGTGGATTCTGAGGCCCTGCCCAATGAGACTCTAGGGTCCAGTGGATGCCACAGCCCAGCTTGGCCCTTTCCTTCCAGATCCTGGGTAC
- inhibition of translation of capped-5′+3′ UTR-luciferase RNA relative to absence of competitor RNA [1]: not significantly inhibited
- percentage of inhibition of expression, dependence on amount of competitor ([1]; competitor RNA, FIG. 9): dose-dependent

B3: SEQ ID NO: 29: Her2 3′ UTR variant with nucleotides 1-110 deleted at the 5′ end, in a luciferase construct (nucleic acid)
DNA: CCTGCCATGCCAGGAACCTGTCCTAAGGAACCTTCCTTCCTGCTTGAGTTCCCAGATGGCTGGAAGGGGTCCAGCCTCGTTGGAAGAGGAACAGCACTGGGGAGTCTTTGTGGATTCTGAGGCCCTGCCCAATGAGACTCTAGGGTCCAGTGGATGCCACAGCCCAGCTTGGCCCTTTCCTTCCAGATCCTGGGTACTGAAAGCCTTAGGGAAGCTGGCCTGAGAGGGGAAGCGGCCCTAAGGGAGTGTCTAAGAACAAAAGCGACCCATTCAGAGACTGTCCCTGAAACCTAGTACTGCCCCCCATGAGGAAGGAACAGCAATGGTGTCAGTATCCAGGCTTTGTACAGAGTGCTTTTCTGTTTAGTTTTTACTTTTTTTGTTTTGTTTTTTTAAAGACGAAATAAAGACCCAGGGGAGAATGGGTGTTGTATGGGGAGGCAAGTGTGGGGGGTCCTTCTCCACACCCACTTTGTCCATTTGCAAATATATTTTGGAAAAC
modifications: luciferase construct
notes: Her2 3′ UTR variant with nucleotides 1-110 deleted at the 5′ end, in a luciferase construct
- fold-increase in luciferase expression over 5′ her2 UTR+Luc [2]: 1.7±0.9 fold

B4: 3′ her2 UTR: naturally occurring Her2 3′ UTR, linked downstream of luciferase in reporter constructs (nucleic acid)
DNA: TGAACCAGAAGGCCAAGTCCGCAGAAGCCCTGATGTGTCCTCAGGGAGCAGGGAAGGCCTGACTTCTGCTGGCATCAAGAGGTGGGAGGGCCCTCCGACCACTTCCAGGGGAACCTGCCATGCCAGGAACCTGTCCTAAGGAACCTTCCTTCCTGCTTGAGTTCCCAGATGGCTGGAAGGGGTCCAGCCTCGTTGGAAGAGGAACAGCACTGGGGAGTCTTTGTGGATTCTGAGGCCCTGCCCAATGAGACTCTAGGGTCCAGTGGATGCCACAGCCCAGCTTGGCCCTTTCCTTCCAGATCCTGGGTACTGAAAGCCTTAGGGAAGCTGGCCTGAGAGGGGAAGCGGCCCTAAGGGAGTGTCTAAGAACAAAAGCGACCCATTCAGAGACTGTCCCTGAAACCTAGTACTGCCCCCCATGAGGAAGGAACAGCAATGGTGTCAGTATCCAGGCTTTGTACAGAGTGCTTTTCTGTTTAGTTTTTACTTTTTTTGTTTTGTTTTTTTAAAGACGAAATAAAGACCCAGGGGAGAATGGGTGTTGTATGGGGAGGCAAGTGTGGGGGGTCCTTCTCCACACCCACTTTGTCCATTTGCAAATATATTTTGGAAAAC
- Fold-increase over 5′ UTR Average ([3]; 293T): 1.54 ± 1.0
- Fold-increase over 5′ UTR Average ([3]; HeLa): 2.23 ± 0.5
- Fold-increase over 5′ UTR Average ([3]; Hs578.1): 2 ± 0.5
- UV-crosslinking of the 48-kDa polypeptide to labeled RNA (48-kDa polypeptide): crosslinks

B5: Her2 5′ UTR: naturally occurring Her2 5′ UTR; RNA probe and competitor in UV-crosslinking (nucleic acid)
DNA: GGCTGCTTGAGGAAGTATAAGAATGAAGTTGTGAAGCTGAGATTCCCCTCCATTGGGACCGGAGAAACCAGGGGAGCCCCCCGGGCAGCCGCGCGCCCCTTCCCACGGGGCCCTTTACTGCGCCGCGCGCCCGGCCCCCACCCCTCGCAGCACCCCGCGCCCCGCGCCCTCCCAGCCGGGTCCAGCCGGAGCCATGGGGCCGGAGCCGCAGTGAGCACC
- competition for binding of the 48-kDa polypeptide to full-length, labeled Her2 3′ UTR (48-kDa polypeptide; 500-fold molar excess of competitor): ineffective
- UV-crosslinking of the 48-kDa polypeptide to labeled RNA (48-kDa polypeptide): does not crosslink
